Results reported in patent US20220411536A1 (NUMAB THERAPEUTICS, published 2022).

Columns and labels:
[1] = biological target: T1, human PD-L1 expressed on cells (CHO-PD-L1, HCC1954, HCC827) (human, UniProt Q9NZQ7 19-290); test: flow cytometry with human SA, inhibition of PD-1 binding to HCC827 cells
T1 construct: whole, on cells; also called hPD-L1; PD-L1 expressing cells

[2] = biological target: T1, human PD-L1 expressed on cells …; test: flow cytometry with human SA, inhibition of PD-1 binding to HCC1954 cells
[3] = biological target: T1, human PD-L1 expressed on cells …; test: cell-based or functional assay
[4] = biological target: CD137 on transgenic NF-kB Jurkat reporter cells (Homo sapiens (Human), UniProt Q07011 24-255); test: cell-based or functional assay
[5] = biological target: T1, human PD-L1 expressed on cells …; test: flow cytometry with human SA, inhibition of PD-1 binding to HCC1954 cells; remark: listed apart in the source

B1: PRO1814 (multispecific antibody)
chain: DIQMTQSPSSLSASVGDRVTITCQASQSINDYLAWYQQKPGKAPKLLIYKASTLASGVPSRFSGSGSGTDFTLTISSLQPEDFATYYCQAAYIITDIDNVFGTGTKVTVLGGGGGSEVQLVESGGGLVQPGGSLRLSCAASGFTFTDYTMDWVRQAPGKGLEWVADVNPNSGGSIYNQRFKGRFTLSVDRSKNTLYLQMNSLRAEDTAVYYCARNLGPSFYFDYWGQGTLVTVSSGGGGSGGGGSGGGGSGGGGSDIQMTQSPSSLSASVGDRVTITCKASQDVSIGVAWYQQKPGKAPKLLIYSASYRYTGVPSRFSGSGSGTDFTLTISSLQPEDFATYYCQQYYIYPYTFGTGTKVTVLGGGGGSQVQLQESGPGLVKPSETLSLTCKVSGFSFSSGYDMCWIRQPPGKGLEWIGCVVAGSVDITYYASWAKGRVTISVDSSKNQFSLKLSSVTAADTAVYYCARKDAYSDAFNLWGQGTLVTVSSGGGGSGGGGSIQMTQSPSSLSASVGDRVTITCQSSESVYSNNQLSWYQQKPGQPPKLLIYDASDLASGVPSRFSGSGSGTDFTLTISSLQPEDFATYYCAGGFSSSSDTAFGGGTKLTVLGGGGGSGGGGSGGGGSGGGGSEVQLVESGGGLVQPGGSLRLSCAASGFSLSSNAMGWVRQAPGKGLEYIGIISVGGFTYYASWAKGRFTISRDNSKNTVYLQMNSLRAEDTATYFCARDRHGGDSSGAFYLWGQGTLVTVSS
notes: also called PR01814
In the case of B1, the IC50 [1] is reported as 53.8 µg/mL and the IC50 [2] is reported as 0.0525 µg/mL.

B2: PRO1853 (multispecific antibody)
chain: DIQMTQSPSSLSASVGDRVTITCQASQSINDYLAWYQQKPGKAPKLLIYKASTLASGVPSRFSGSGSGTDFTLTISSLQPEDFATYYCQAGYIITDIDNVFGTGTKVTVLGGGGGSEVQLVESGGGLVQPGGSLRLSCAASGFTFTDYTMDWVRQAPGKGLEWVADVNPNSGGSIYNQRFKGRFTLSVDRSKNTLYLQMNSLRAEDTAVYYCARNLGPSFYFDYWGQGTLVTVSSGGGGSGGGGSGGGGSGGGGSDIQMTQSPSSLSASVGDRVTITCKASQDVSIGVAWYQQKPGKAPKLLIYSASYRYTGVPSRFSGSGSGTDFTLTISSLQPEDFATYYCQQYYIYPYTFGTGTKVTVLGGGGGSQVQLQESGPGLVKPSETLSLTCKVSGFSFSSGYDMCWIRQPPGKGLEWIGCVVAGSVDITYYASWAKGRVTISVDSSKNQFSLKLSSVTAADTAVYYCARKDAASDAFNLWGQGTLVTVSSGGGGSGGGGSIQMTQSPSSLSASVGDRVTITCQSSESVYSNNQLSWYQQKPGQPPKLLIYDASDLASGVPSRFSGSGSGTDFTLTISSLQPEDFATYYCAGGFSSSSDTAFGGGTKLTVLGGGGGSGGGGSGGGGSGGGGSEVQLVESGGGLVQPGGSLRLSCAASGFSLSSNAMGWVRQAPGKGLEYIGIISVGGFTYYASWAKGRFTISRDNSKNTVYLQMNSLRAEDTATYFCARDRHGGDSSGAFYLWGQGTLVTVSS
B2 showed an IC50 [1] of 88.2 µg/mL and an IC50 [2] of 0.0695 µg/mL.

B3: PRO1852 (multispecific antibody)
chain: DIQMTQSPSSLSASVGDRVTITCQASQSINDYLAWYQQKPGKAPKLLIYKASTLASGVPSRFSGSGSGTDFTLTISSLQPEDFATYYCQAAYIITDIDNVFGTGTKVTVLGGGGGSEVQLVESGGGLVQPGGSLRLSCAASGFTFTDYTMDWVRQAPGKCLEWVADVNPNSGGSIYNQRFKGRFTLSVDRSKNTLYLQMNSLRAEDTAVYYCARNLGPSFYFDYWGQGTLVTVSSGGGGSGGGGSGGGGSGGGGSDIQMTQSPSSLSASVGDRVTITCKASQDVSIGVAWYQQKPGKAPKLLIYSASYRYTGVPSRFSGSGSGTDFTLTISSLQPEDFATYYCQQYYIYPYTFGCGTKVTVLGGGGGSQVQLQESGPGLVKPSETLSLTCKVSGFSFSSGYDMCWIRQPPGKGLEWIGCVVAGSVDITYYASWAKGRVTISVDSSKNQFSLKLSSVTAADTAVYYCARKDAYSDAFNLWGQGTLVTVSSGGGGSGGGGSIQMTQSPSSLSASVGDRVTITCQSSESVYSNNQLSWYQQKPGQPPKLLIYDASDLASGVPSRFSGSGSGTDFTLTISSLQPEDFATYYCAGGFSSSSDTAFGGGTKLTVLGGGGGSGGGGSGGGGSGGGGSEVQLVESGGGLVQPGGSLRLSCAASGFSLSSNAMGWVRQAPGKGLEYIGIISVGGFTYYASWAKGRFTISRDNSKNTVYLQMNSLRAEDTATYFCARDRHGGDSSGAFYLWGQGTLVTVSS
Work on B3 yielded an IC50 [1] of 16.8 µg/mL and an IC50 [2] of 0.0556 µg/mL.

B4: PRO1854 (multispecific antibody)
chain: DIQMTQSPSSLSASVGDRVTITCQASQSINDYLAWYQQKPGKAPKLLIYKASTLASGVPSRFSGSGSGTDFTLTISSLQPEDFATYYCQAGYIITDIDNVFGTGTKVTVLGGGGGSEVQLVESGGGLVQPGGSLRLSCAASGFTFTDYTMDWVRQAPGKCLEWVADVNPNSGGSIYNQRFKGRFTLSVDRSKNTLYLQMNSLRAEDTAVYYCARNLGPSFYFDYWGQGTLVTVSSGGGGSGGGGSGGGGSGGGGSDIQMTQSPSSLSASVGDRVTITCKASQDVSIGVAWYQQKPGKAPKLLIYSASYRYTGVPSRFSGSGSGTDFTLTISSLQPEDFATYYCQQYYIYPYTFGCGTKVTVLGGGGGSQVQLQESGPGLVKPSETLSLTCKVSGFSFSSGYDMCWIRQPPGKGLEWIGCVVAGSVDITYYASWAKGRVTISVDSSKNQFSLKLSSVTAADTAVYYCARKDAASDAFNLWGQGTLVTVSSGGGGSGGGGSIQMTQSPSSLSASVGDRVTITCQSSESVYSNNQLSWYQQKPGQPPKLLIYDASDLASGVPSRFSGSGSGTDFTLTISSLQPEDFATYYCAGGFSSSSDTAFGGGTKLTVLGGGGGSGGGGSGGGGSGGGGSEVQLVESGGGLVQPGGSLRLSCAASGFSLSSNAMGWVRQAPGKGLEYIGIISVGGFTYYASWAKGRFTISRDNSKNTVYLQMNSLRAEDTATYFCARDRHGGDSSGAFYLWGQGTLVTVSS
Work on B4 yielded an IC50 [1] of 53.5 µg/mL and an IC50 [2] of 0.0561 µg/mL.

B5: PRO1494 (scFv, V domains shown)
VH: QVQLQESGPGLVKPSETLSLTCKVSGFSFSSGYDMCWIRQPPGKGLEWIGCVVAGSVDITYYASWAKGRVTISVDSSKNQFSLKLSSVTAADTAVYYCARKDAASDAFNLWGQGTLVTVSS
VL: DIQMTQSPSSLSASVGDRVTITCQASQSINDYLAWYQQKPGKAPKLLIYKASTLASGVPSRFSGSGSGTDFTLTISSLQPEDFATYYCQAGYIITDIDNVFGTGTKVTVLG
B5 was tested, and the “IC50, neutralization of PD-L1 in NF-AT potency assay” value [3] was 36.8 µg/mL.

B6: PRO1992 (multispecific antibody)
chain 1: DVVMTQSPSSLSASVGDRVTITCQASQIISSRSAWYQQKPGQPPKLLIYQASKLASGVPSRFSGSGSGTDFTLTISSLQPEDFATYYCQCTYIDSNFGAFGTGTKLTVLGGGGGSGGGGSGGGGSGGGGSEVQLVESGGGLVQPGGSLRLSCAASGFSFSSSYWICWVRQAPGKGLEWVGCVFTGDGTTYYASWAKGRFTISRDNSKNTVYLQMNSLRAEDTATYFCARPVSVYYYGMDLWGQGTLVTVSSGGGGSGGGGSDIQMTQSPSSLSASVGDRVTITCKASQDVSIGVAWYQQKPGKAPKLLIYSASYRYTGVPSRFSGSGSGTDFTLTISSLQPEDFATYYCQQYYIYPYTFGCGTKVTVLGGGSGGSDIQMTQSPSSLSASVGDRVTITCQASQSINDYLAWYQQKPGKAPKLLIYKASTLASGVPSRFSGSGSGTDFTLTISSLQPEDFATYYCQAAYIITDIDNVFGTGTKVTVLG
chain 2: DIQMTQSPSSLSASVGDRVTITCQASQSISNRLAWYQQKPGKAPKLLIYSASTLASGVPSRFSGSGSGTDFTLTISSLQPEDFATYYCQSTYYGNDGNAFGCGTKVTVLGGGGGSGGGGSGGGGSGGGGSEVQLVESGGGLVQPGGSLRLSCAASGFSFSANYYPCWVRQAPGKCLEWIGCIYGGSSDITYDANWTKGRFTISRDNSKNTVYLQMNSLRAEDTAVYYCARSAWYSGWGGDLWGQGTLVTVSSGGGGSGGGGSQVQLQESGPGLVKPSETLSLTCKVSGFSFSSGYDMCWIRQPPGKGLEWIGCVVAGSVDITYYASWAKGRVTISVDSSKNQFSLKLSSVTAADTAVYYCARKDAYSDAFNLWGQGTLVTVSSGGGSGGGSEVQLVESGGGLVQPGGSLRLSCAASGFTFTDYTMDWVRQAPGKCLEWVADVNPNSGGSIYNQRFKGRFTLSVDRSKNTLYLQMNSLRAEDTAVYYCARNLGPSFYFDYWGQGTLVTVSS
For B6, the “EC50, NFkB reporter gene assay, HCC827 cells” value [4] was 0.253 nM, the “EC50, NFkB reporter gene assay, HCC1954 cells” value [4] was 0.0824 nM and the IC50 [5] was 0.592 µg/mL.
